# Measured values reported in the DeepSol protein solubility set.
# Experiment: soluble on expression in E. coli; label from the status in PepcDB or PDB records
row,Sequence,soluble on expression in E. coli
1,MSLTKEAIISYLSSDLFKGVGKKTAQNIVNTLGDNAINDILDDHSVLEKVSGLSKKKQKQIAEQISANQESEKIMIRLHDLGFGPKLSMAIYQFYLGDTLTILDRNPYQLIYDIKGIGFNKADQLARNIGIAYNDNERLKAALLYTLEEECIKQGHTYLPINVVIDLTVDVLNYQDEEVIEPEKLDEMLQYLNEEKRLIIDNEQVAIPSLYYSEIKSVQNLFRIKTHTNKLTEIEQSDLQMHIGEIEDANQVNYAASQKEALQTAINSKVMLLTGGPGTGKTTVIKGIVELYAEIHGLSLDYDDYVNDDYPVVLAAPTGRASKRLQESTGLEAMTIHRLIGWNQDTKPEDILENEINARLIIIDEMSMVDTWLFHQFLSAVPLDAQLIFVGDEDQLPSVGPGQVFKDLIESKAIPRVNLTEVYRQQDGSSIIELAHRMKLGQKIDITQRFHDRSFINCQANQIPTVVEKVVTSAVNKGYTMADIQVLAPMYKGNAGIKRLNQVLQDILNPKKKDTREIEFGDVVFRKGDKVLQLVNRPNDNIFNGDIGVIVGIFWAKENALNKDVLVVDFEGNEITFTKQDMMELTHAYCTSIHKSQGSEFPIVIMPIVKQYFRMLQRPILYTGLTRAKTSLVLLGDPEAFDIGLKTNGQARLTQLCTLLKNYFNSEGHHHHHH,soluble
2,MGEKIKLEHGAGGEIMEELLRDVILKTLTLKSAGGIGLDALDDGATIPFGDKHIVFTIDGHTVKPLFFPGGDIGRLAVSGTVNDLAVMGAEPIALANSMIIGEGLDMEVLKRVLKSMDETAREVPVPIVTGDTKVVEDKIEMFVITAGIGIAEHPVSDAGAKVGDAVLVSGTIGDHGIALMSHREGIAFETELKSDVAPIWDVVKAVAETIGWENIHAMKDPTRAGLSNALNEIARKSNVGILVREADIPIRPEVRAASEMLGISPYDVANEGKVVMVVAREYAEEALEAMRKTEKGRNAAIIGEVIADYRGKVLLETGIGGKRFMEPPEGDPVPRIC,soluble
3,MFGKYKVSVIIPAYNEEKRIGNVLARIPDFVDEVIVIDDGSSDATYEVAKRYTDKAIRLNKNMGKGAALREGLRHASGDIIVFMDADGQHNPKEIPKLLEPIIKGKADFVIGKRIIKTGKRPLPRKLSNFITTTLIRLKTKQRIEDSQSGFRAIRREFVPEITSDRYEVETEVLIKAVKKGARITEVPVSTRYDLKTGKFRVEDIIRFLIALIKSLEHHHHHH,not soluble
4,MGSDKIHHHHHHMARETQCNRQTDCAQCPKATEGILVHRKFPKGQHFPPDKCTQNCILFILQGELLVNSEEYPGTTLREGQFILQSIGSKLELLALTDVNYVVYWFNEPPLICEQRYHEILQQSEAPLTYTPLVMTQRITNFMKDICDYLDEQMPCGAFIDLKCQELMYLIICYYPIPQLSKFFYPISSYTESFQYFVMQNYEKVKNVEEFAHLGGYTTTTFRRLFKNMYGVPVYEWILSKKREGILEDLQHTKQRITEISNRYGFDSLSHFAHFCKASFGDSPRALRTRAARGEKITALKTE,not soluble
5,MSVAVATLHAAASGAVLRRRRTYIHPQQPAADVCPQACTRICPPPPLPHGLRVRGGHLVRYTACVPAHTGSMSASSTVSDRRVCIFFDCRVAGDGKGYEELRQTVYAQCSQLLTLSYLHYQRSGTTLSATVHLVTHTRVESFATPFCATSTDHPIDSGAAGVISGLRALAAAQPDHSVNACGAAIFGNRMESVLPHVQRALGGSQQRHQLILFCSSYVSHTEATQSLSGLCLDASPHQRLRCILVDWEAVCVTVGELASNVRVYRCSRSARQLQAAMQEILSLFLLPDVRSSRRLGLQLGLQAVPVIATISHYGAFLDGRDTIGSVVATDRASSAAAPMAGGVMHQRLAETNHRHNRANAASVVERDDRDPWSTLHLRAVLEADNIDESFLMGDTWTLALDTSAASTSTLTSSSAPSWPCTASTVALWHAFCNAFLGDALVFTGEETGIEAHRHAMQRHHHFVAYFMPDRTMRVREIVPPELRFVPLPAFPTREGLREQKAYTTEMQRLREQLVSHCACASFSLDALLSSGGHGAASTP,not soluble
6,MVKVGYIQMEPKILELDKNYSKAEKLIKEASKEGAKLVVLPELFDTGYNFESREEVFDVAQQIPEGETTTFLMELARELGLYIVAGTAEKSGNYLYNSAVVVGPRGYIGKYRKIHLFYREKVFFEPGDLGFKVFDIGFAKVGVMICFDWFFPESARTLALKGAEIIAHPANLVMPYAPRAMPIRALENRVYTITADRVGEERGLKFIGKSLIASPKAEVLSIASETEEEIGVVEIDLNLARNKRLNDMNDIFKDRREEYYFR,soluble
7,MAEVFVGPVAQGYASGEVTVLLASPRSFCAGVERAIETVKRVLDVAEGPVYVRKQIVHNTVVVAELRDRGAVFVEDLDEIPDPPPPGAVVVFSAHGVSPAVRAGADERGLQVVDATCPLVAKVHAEAARFAARGDTVVFIGHAGHEETEGTLGVAPRSTLLVQTPADVAALNLPEGTQLSYLTQTTLALDETADVIDALRARFPTLGQPPSEDICYATTNRQRALQSMVGECDVVLVIGSCNSSNSRRLVELAQRSGTPAYLIDGPDDIEPEWLSSVSTIGVTAGASAPPRLVGQVIDALRGYASITVVERSIATETVRFGLPKQVRAQ,not soluble
8,ADPDVLTEVPAALKRLAKYVIRGFYGIEHALALDILIRNSCVKEEDMLELLKFDRKQLRSVLNNLKGDKFIKCRMRVETAADGKTTRHNYYFINYRTLVNVVKYKLDHMRRRIETDERDSTNRASFKCPVCSSTFTDLEANQLFDPMTGTFRCTFCHTEVEEDESAMPKKDARTLLARFNEQIEPIYALLRETEDVNLAYEILEPEPTEIPALKQSKDHAATTAGAASLAGGHHREAWATKGPSYEDLYTQNVVINMDDQEDLHRASLEGKSAKERPIWLRESTVQGAYGSEDMKEGGIDMDAFQEREEGHAGPDDNEEVMRALLIHEKKTSSAMAGSVGAAAPVTAANGDDSESETSESDDDSPPRPAAVAVHKREEDEEEDDEFEEVADDPIVMVAGRPFSYSEVSQRPELVAQMTPEEKEAYIAMGQRMFEDLFE,not soluble
9,MGSDKIHHHHHHMRVSSDDALFYRIEAFFRGRAYGPHRHDTYAVGITTAGIQSIRYRGELVHSSPGDTVVIHPDEIHDGRAGTVAGYCYRIVHLQPEALQQILGQTSLPFIKEGVSQNAQLYQAIWAMLREFDRPLEPLERTDLLFDLAMALQAAAGTAKAKHTGNIKAALIARDCIRSAPSQRIELDVLARESGRDRWSLSRDFRQFFGTSPSRYMTMRRLDIARRLMSNGTPLAECAVAVGFADQSHMSRQFVEAFGLTPTRWLTMLR,not soluble
10,MSLNPASPFATLTDRIDWQKVDGLVPAIVQDFQSSQVLMMGYMNPEALQKTLDTQQVTFFSRSKQRLWTKGETSGHVLQLKNIALDCDQDTLLVKVNPIGPTCHTGTVTCWDGDAQEESQMVWLHQLEQLLAERKNADPSSSYTASLYARGTKRIAQKVGEEGVEVALAATAGDKEELICESADLMYHLLVLLQEQGLAMNDVINKLKERHKEGHHHHHH,soluble
11,MLHILCQGTPFEIGYEHGSAAKAVIARSIDFAVDLIRGKTKKTDEELKQVLSQLGRVIEERWPKYYEEIRGIAKGAERDVSEIVMLNTRTEFAYGLKAARDGATTAYCQLPNGALQGQNWDFFSATKENLIRLTIRQAGLPTIKFITEAGIIGKVGFNSAGVAVNYNALHLQGLRPTGVPSHIALRIALESTSPSQAYDRIVEQGGMAASAFIMVGNGHEAFGLEFSPTSIRKQVLDANGRMVHTNHCLLQHGKNEKELDPLPDSWNRHQRMEFLLDGFDGTKQAFAQLWADEDNYPFSICRAYEEGKSRGATLFNIIYDHARREATVRLGRPTNPDEMFVMRFDEEDERSALNARL,soluble
12,MAHHHHHHMTEPVRILVRRDEITVDSIMQYFVAVDEEKNKFETLCDLYDTLTIAHAVIFCNTRKKVEQLAKKMRKEKFSVSCMHGDMPQAERDEIMRNFREGKSRVLISTDLWSRGIDVEQVSLVLNYDLPFSREQYIHRIGRTGRMGRKGLAISFVKHDELRLLRDVEQFYATQIEELPANIADQF,not soluble
13,MGSDKIHHHHHHMLLTLSICNFRSFGTEATLDLQRRGFRTQHPRKDETWQENTWRRAAIFGANAAGKSNVLRALGQLKLAITHSLTNEHWVRELRDPHSLCTDEPTSFEVEYVFDDVRYRWGLTLNHSGVVEEFLEANLSSRWRRIFERTGNSLIFGSNTGISHAAKENIEQFMRPWALVFSAWNTVKTPGPFAGALQWWQTLLPVIMSNEADQHNRHQWLVQLAQKDPTWLSVLQNVVAVADVGINKIGIEEQAPDLVKKIELTIQPDGQAEITDQFDSDEITEYLRYLMFEHSDGIHTFSLPETQESQGTKAWMDLAIPALFALSVGGVLSIDEIDGSLHPLLVRELVSYFDNSELNPLGAQLLFSTHDLTLLGKYPAESLHRGEVWLVEKERSYSELIALDEFPIRDAHNIEKRYLQGTYGAVPISNTTELLHTLEVLREKYTKMKQQ,not soluble
14,SNAMENEKILNPIIIQRADPMIYKHNDGYYYFTASVPEYDRIEVRKAKTIEGLRNAEPVDVWRRHESGEMSNLIWAPEIHFINGAWYIYFAAAPDKNIEDDTFNHRMFVIQNENENPFTGNWVEKGRIKTAWESFSLDATIFEHNEKLYYVWAQQDINIKGHSNIYIAEMENPWTLKTKPVMLTKPELEWEIKGFWVNEGPAVLKKNGKIFITYSASATDVNYCIGMLTAEENSNLLDKNSWTKSQTPVFKTSMENHQYGPGHNSFTVSEDGKHDVIVYHARNYTEIKGDPLYDPNRHTRAQIINWREDGTPDFGVPEVDSLEIETPVKA,soluble
15,IKELKMSKDEIKREYKEMEGSPEIKSKRRQFHQEIQSRNMRENVKRSSVVVAAATHIAIGILYKRGETPLPLVTFKYTDAQVQTVRKIAEEEGVPILQRIPLARALYWDALVDHYIPAEQIEATAEVLRWLERQNIEKQHSEML,soluble
16,MTKIAFTGGGTVGHVSVNLSLIPTALSQGYEALYIGSKNGIEREMIESQLPEIKYYPISSGKLRRYISLENAKDVFKVLKGILDARKVLKKEKPDLLFSKGGFVSVPVVIAAKSLNIPTIIHESDLTPGLANKIALKFAKKIYTTFEETLNYLPKEKADFIGATIREDLKNGNAHNGYQLTGFNENKKVLLVMGGSLGSKKLNSIIRENLDALLQQYQVIHLTGKGLKDAQVKKSGYIQYEFVKEDLTDLLAITDTVISRAGSNAIYEFLTLRIPMLLVPLGLDQSRGDQIDNANHFADKGYAKAIDEEQLTAQILLQELNEMEQERTRIINNMKSYEQSYTKEALFDKMIKDALN,not soluble
17,MSLEGYTVIIKTGNEDLDRRLTGLPFPALIMIEGDHGTGKSVLAAQICYGLLISDKKGYVITTEQTTKDYLVKMRDVKINLIPFFIKGSLGVAPLNTNKFNWNSDLANKILDLIIDFVKKRKNIEFLIIDSLSVLATFAEERQILQFMKESRVLVDLGKLILFTIHPDVFSEEIKSRITSIVDVYFKLSAVTIGGRRIKVLERVKTVGGIQGSDTISFDIDPALGIKVIPLSLSRAEGHHHHHH,soluble
18,MTESDDHKLVLAISSRALFDLRDSHAVYMAEGVEAYRKYQIEHEDEILERGDAFTLVEKLLNLNASLSKARVEVVLVSRNSADTGLRVFNSIQHYGLDIARAAFAGGRSPYPYLAAFGCHLFLSTHAEDVRSALDAGFAAATILSGGARRAASAELRIAFDGDAVLFSDESERVYQSGGLAAFQASERESAREPLRGGPFKPFLAALNQLQREFPDASCPIRTALVTARSAPAHERVIRTLREWDIRLDESLFLGGLQKSAFLEAFAADVFFDDQPGHCEKAREVVATGHVPHGISNEIIPFDGGGAAALEHHHHHH,not soluble
19,MGSDKIHHHHHHMRVCAEHHVINTATGPMGTRVYRPAGPGSYPAILFYSEIFQETAPISRMATVLAGHGFVVLVPEIFHELNPAGTVLGYDDMGKDKGNSDKATKPLESHDSDTAAMVDFVRRQPWCQGKIGAMGVCIGGHLAYRAAVNPDVAAAFCLYATDIHSGTIPSQPGNDSLSRTRDIRGELYMVFGKQDPHVPGEGRRLIQHNLEQHGVNHSWLEVNAEHAFMRDGDARHDPALALVMYQSAIALFQRTL,not soluble
